In data set [1] the target is FLAG-tagged ubiquitin, P0CG47.
Data set [2] deals with T1, RLRGG-AMC, C-terminal peptide motif of Ub and ISG15 coupled to aminomethylcoumarin.
T1 chain: RLRGG

Data set [3] has as its target ubiquitin-aminomethylcoumarin, P0CG47.

This is an account of results in US20150313988.

Residue numbers refer to the chain shown, from its start. Numbers in names are those of the source.

ubiquitin-aminomethylcoumarin, P0CG47, sequence (P0CG47 whole entry, looked up): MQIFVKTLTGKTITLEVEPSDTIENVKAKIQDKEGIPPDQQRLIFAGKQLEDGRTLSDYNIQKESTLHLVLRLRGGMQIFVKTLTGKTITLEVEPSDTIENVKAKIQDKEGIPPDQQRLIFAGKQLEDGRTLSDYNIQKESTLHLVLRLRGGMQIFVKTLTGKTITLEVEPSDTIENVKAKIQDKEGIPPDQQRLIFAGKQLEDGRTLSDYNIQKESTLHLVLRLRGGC
FLAG-tagged ubiquitin, P0CG47, sequence (P0CG47 whole entry, looked up): as above

B1: EAV nsp2-3 polyprotein with N-terminal HA tag, PLP2 mutant I353R (protein)
chain: GYNPPGDGACGYRCLAFMNGATVVSAGCSSDLWCDDELAYRVFQLSPTFTVTIPGGRVCPNAKYAMICDKQHWRVKRAKGVGLCLDESCFRGRCNCQRMSGPPPAPVSAAVLDHILEAATFGNVRVVTPEGQPRPVPAPRVRPSANSSGDVKDPAPVPPVPKPRTKLATPNPTQAPIPAPRTRLQGASTQEPLASAGVASDSAPKWRVAKTVYSSAERFRTELVQRARSVGDVLVQALPLKTPAVQRYTMTLKMMRSRFSWHCDVWYPLAVIACLLPIWPSLALLLSFAIGLIPSVGNNVVLTALLVSSANYVASMDHQCEGAACLALLEEEHYYRAVRWRPITGALSLVLNLLGQVGYVARSTFDAAYVPCTVFDLCSFAILYLCRNRCWRCFGRCVRVGPATHVLGSTGQRVSKLALIDLCDHFSKPTIDVVGMATGWSGCYTGTAAMERQCASTVDPHSFDQKKAGATVYLTPPVNSGSALQCLNVMWKRPIGSTVLGEQTGAVVTAVKSISFSPPCCVSTTLPTRPGVTVVDHALYNRLTASGVDPALLRVGQGDFLKLNPGFRLIGGWIYGICYFVLVVVSTFTCLPIKCGIGTRDPFCRRVFSVPVTKTQEHCHAGMCASAEGISLDSLGLTQLQSYWIAAVTSGLVILLVCHRLAISALDLLTLASPLVLLVFPWASVGLLLACSLAGAAVKIQLLATLFVNLFFPQATLVTMGYWACVAALAVYSLMGLRVKVNVPMCVTPAHFLLLARSAGQSREQMLRVSAAAPTNSLLGVARDCYVTGTTRLYIPKEGGMVFE
Regarding B1, the “density of the alpha-flag lane (remaining ubiquitin conjugates)” value in data set [1] is recorded as “shows a density of the alpha-flag lane that is about twice as high as that of the T312A lane”.

B2: EAV nsp2-3 polyprotein with N-terminal HA tag, PLP2 mutant T312A (protein)
chain: B1 chain with T52A, R93I
As to B2, the “density of the alpha-flag lane (remaining ubiquitin conjugates)” value in data set [1] is on record as “a mutant such as T312A already shows a level of DUB-activity that leads to a significantly denser alpha-flag lane, which represents the amount of remaining ubiquitin conjugates, than that of the wild-type virus”.

B3: EAV PLP2 domain (residues 261-392 of EAV pp1a) carrying a C-terminal HIS6 purification tag, wild-type (protein)
chain: GYNPPGDGACGYRCLAFMNGATVVSAGCSSDLWCDDELAYRVFQLSPTFTVTIPGGRVCPNAKYAMICDKQHWRVKRAKGVGLCLDESCFRGICNCQRMSGPPPAPVSAAVLDHILEAATFGNVRVVTPEGQ
One may read the kcat/KM as the second-order rate constant that governs catalysis at low substrate concentration. Regarding B3, the kcat/KM in data set [2] was found to be 48 ± 8 M⁻¹ s⁻¹; in data set [3], 21000 ± 2000 M⁻¹ s⁻¹.

B4: EAV PLP2 domain I353R mutant enzyme (protein)
chain: B3 chain with I93R
Turning to B4, in data set [2], the kcat/KM worked out at 71 ± 8 M⁻¹ s⁻¹. Moreover, in data set [3], the specificity constant (kcat/KM) turned out to be 1100 ± 100 M⁻¹ s⁻¹ and the “kcat/KM relative to wild type” value was “the kcat/KM value for Ub-AMC of the mutant I353R is 20 times lower than that of the wild-type virus”.
